Reference: a protein production outcome set (Wang et al. 2014)

Experiment: label from the status in PepcDB records

Sequence | protein production
MPTIRINKLTDPVVFLHILFFLIIASSSLTYWKMSDYAVNQSWDAYFYKYSDYLDLVPTWEKILKDAFSLVLLLASIYFPRRKILDFSPNINLQRYYLSFILLFFLSLSNLFASRDVTNLTLFTIVAVIRPFLITASLLFFCHKHLNFFYFRIILECVNIIGIIQVYHSFLQRNSAIINNGLDWLHSGSARSVGTFADPNTLGRFLALLIMVNLFMLPPNIIRFFLIISYGIALFFTGSRASLLIIGIFILLFVAIKLSRQSIASTRAKNLTFAFLLTVPLLQFLLLRINLISNRADDTASPLQDGRYHILFNLINRLNPYEFIFGNYLGYGSNALILTGYDGSNFLSDSTPASLIGQFGITGLLLFILIVINLFKQTPRHININNSQDYLVLTGDLLQSRNALSFYLIISCFTTIIFESYAVIPILLGLIFYDNLDLKNIKF | failed
MRNPSEDHMMRTPYQIVADHYAASDRHDPAAMMADIAPAIEWTEMAGFPCAGTYRSADEIVRNVFRRLGEEWDGYTFKLDALHDAGDTVIGVGRYSGTYRRTGKSFECRVAHVWRVDAGKIVHFEQFTDTLLVAQAMQP | not failed
VENLKAQALCSWTAKKDNHLNFSKHDIITVLEQQENWWFGEVHGGRGWFPKSYVKIIPGSE | not failed
MDFSKAFGLVYKALDYRSLRQDMIASNIANVDTPFYRPKDLDFESVLAKKKAEIFENQSSKVLPLAHTNPRHLDFENSAKDGASLFFRDGHLAKNDGNSVDLDIETSEMGKNSTMYLALSSALKKYRGVINYAIDSSKNL | failed
MRLEGEGRSARAGQNLSRAGSARRGAPRDLSMNNLTELQPGLFHHLRFLEELRLSGNHLSHIPGQAFSGLYSLKILMLQNNQLGGIPAEALWELPSLQSLDLNYNKLQEFPVAIRTLGRLQELGFHNNNIKAIPEKAFMGNPLLQTIHFYDNPIQFVGRSAFQYLPKLHTLSLNGAMDIQEFPDLKGTTSLEILTLTRAGIRLLPSGMCQQLPRLRVLELSHNQIEELPSLHRCQKLEEIGLQHNRIWEIGADTFSQLSSLQALDLSWNAIRSIHPEAFSTLHSLVKLDLTDNQLTTLPLAGLGGLMHLKLKGNLALSQAFSKDSFPKLRILEVPYAYQCCPYGMCASFFKASGQWEAEDLHLDDEESSKRPLGLLARQAENHYDQDLDELQLEMEDSKPHPSVQCSPTPGPFKPCEYLFESWGIRLAVWAIVLLSVLCNGLVLLTVFAGGPVPLPPVKFVVGAIAGANTLTGISCGLLASVDALTFGQFSEYGARWETGLGCRATGFLAVLGSEASVLLLTLAAVQCSVSVSCVRAYGKSPSLGSVRAGVLGCLALAGLAAALPLASVGEYGASPLCLPYAPPEGQPAALGFTVALVMMNSFCFLVVAGAYIKLYCDLPRGDFEAVWDCAMVRHVAWLIFADGLLYCPVAFLSFASMLGLFPVTPEAVKSVLLVVLPLPACLNPLLYLLFNPHFRDDLRRLRPRAGDSGPLAYAAAGELEKSSCDSTQALVAFSDVDLILEASEAGRPPGLETYGFPSVTLISCQQPGAPRLEGSHCVEPEGNHFGNPQPSMDGELLLRAEGSTPAGGGLSGGGGFQPSGLAFASHV | failed
SMLSRAKPAVGGESPHTDKRKKKGRKIPKLEDLLSQRDFTGAITLLEFKRHVGEQEDDTNLWIGYCAFHLGDYKRALEEYENATKEENCNPEVWVNLACTYFFLGMYKQAEAAGFKAPKSRLQNRLLFHLAHKFNDEKKLMNFHQNLQDIKEDQLSLASNSEIHLPLPPECWD | failed
MIQLVIRLGLLALLIFWTLYLIRPFVTILVWALVLAVAFNPIFLVLAKILGGRAKLAAGLLTAINLAIVIGPAAWLGLGAVDGIRDFAGELAAGDLVIPSPPAAIKTWPLIGTPLYEFWDQASTNLRSVVQRIAPYLKPFAGTLLGIAGDAGVGTIKFLLSVVVAGCLFPYGPQLVAAGRSFLSRIVPEQSEHFLDLAGATIRAVAQGVIGIAVVQALLAGIGFKLAGIPIAGLLALLVLLLSIVQIGGAIIMLPVMIWIWTDKDVTVAVLLTLFLGIVSILDNILKPLVMGRGLTTPALVILIGVIGGTLGHGIVGLFIGPIVLSVAWELTVAWIRTDRASAASQATIDR | failed
ELPSVEELTIILPEDIELKPLGMVSSIIEQLVIIESMTNLPPVNEETVIFKSDRQAAGKIFEIFGPVAHPFYVLRFNSSDHIESKGIKIKETMYFA | not failed
MGTLPARRHIPPWVKVPEDLKDPEVFQVQTRLLKAIFGPDGSRIPYIEQVSKAMLELKALESSDLTEVVVYGSYLYKLRTKWMLQSMAEWHRQRQERGMLKLAEAMNALELGPWMK | failed
MKKILAICGIELSLIFKKPQNYLIMFAAPLLLTFVFGSMLSGNDDKVRLAIVDQDDTILSQHYIRQLKAHDDMYVFENMSESKASEKLKQKKIAGIIVISRSFQTQLEKGKHPELIFRHGPELSEAPMVKQYAESALATLNIQVTAAKTASQTAGENWKAAYKTVFAKKHEDIVPAVTRQTLSDKKEGAEASDTASRAAGFSILFVMLTMMGAAGTILEARKNGVWSRLLTASVSRAEIGAGYVLSFFVIGWIQFGILLLSTHWLFGINWGNPAAVIVLVSLFLLTVVGIGLMIAANVRTPEQQLAFGNLFVIATCMVSGMYWPIDIEPKFMQSIAEFLPQKWAMSGLTEIIANGARVTDILGICGILLAFAAITFAAGLKALRA | failed
MSEMIYGIHAVQALLERAPERFQEVFILKGREDKRLLPLIHALESQGVVIQLANRQYLDEKSDGAVHQGIIARVKPGRQYQENDLPDLIASLDQPFLLILDGVTDPHNLGACLRSADAAGVHAVIVPKDRSAQLNATAKKVACGAAESVPLIRVTNLARTMRMLQEENIWIVGTAGEADHTLYQSKMTGRLALVMGAEGEGMRRLTREHCDELISIPMAGSVSSLNVSVATGICLFEAVRQRS | not failed
CAAIAALSAVGLPSDRFSFEGFLPSKSSQRLLQLEKLKDETQTLIFYEAPHRILDCVTDMMHIFGEDRPVGFAREITKTFETIKKMTLKELVSFIQNDHHQQKGEIVLIVGGNPVNK | failed
WRQRDEAEFTGVDDIPVRFVRFRAQHHDRVVVICPGRIESYVKYAELAYDLFHLGFDVLIIDHRGQGRSGRLLADPHLGHVNRFNDYVDDLAAFWQQEVQPGPWRKRYILAHSMGGAISTLFLQRHPGVCDAIALTAPMFGIVIRMPSFMARQILNWAEAHPRFRDGYAIGTGRWRALPFAINVLTHSRQRYRRNLRFYADDPTIRVGGPTYHWVRESILAGEQVLAGAGDDATPTLLLQAEEERVVDNRMHDRFCELRTAAGHPVEGGRPLVIKGAYHEILFEKDAMRSVALHAIVDFFNRHN | failed
MNVAEEMLSGEETLAVGERFKTFLENFRTEEGKLKYVEAIRRMINYEETSLEVEFKDLYRYDPLLSEILLEKPREFLKEASEALKEIVAQESPEYAQGRVFTPRFTGLFDTERIRDIGSDHVGKLVQINGIVTRMHPRATRMVRARFRHDRCGAEFWWPANEDEVLGERIERPSICPVCGEGGGKFTLVRDKSLYIDWQKIMVQERPEDVPGGQIPRSIEVHLSRDLVEKVRPGDRVKIVGVVGLQSFSSSSTLYSLYMEANSILLEEKILEEVSITREDEEKILQLSRDPWIKEKIIASIAPTIYGHWDLKEAIALLLFGGVPKQRPDGTRTRGDIHVLFVGDPGVAKSQLLQSTAQVAPRVVYTTGKGSTAAGLTAAVLRDPRTGEYFLEAGALVLADGGIAVIDEFDKMSKEDRGVIHEAMEQQTVSIAKAGIKATLSARASLLAAGNPKFGYYDPSRSFVDNVDLPAPIISRFDLIFVVRDVIERSRDEMLASYVLETHTNVELFKPEIDPDLLRKYIAFARKHVKPRLTPQAKKLLKDFYVEMRSSALHHSSQEGAKPVPITTRQLEALIRLTEAHARMSLKQEATEEDAIAAIRIMTSVLQSIGLDLETGEIDIGIIMTGASFRSRKIMSEVLDLIKSIVEEERGGQGCVRASEIVRRLGEKNIPEEKVRDAIDKLYRQGLIIEIRTECYKAV | failed
MSASRILTAFGLTGALVTAGVAQAGIVYIPEGSADSVLMVESETGQPVGRISGVEAVHGLAGAPGTPYLVAGSYSEIDPESAAQTARPEGVSQADHNAHHAKPAKAAMPTDKGLSLVSVIDAGTGEVVRRIEVPGAVHHTAVSPDGRWAMATHPGGDGVSLIDLSTLEYAGFIATGPMPNYVSFSPDNSRAYVSNAGNGTLSELDLDRRILSRNLLAGEGPEHFALSRDGATVFVADAEAGRVLRLDIASGAETASYGFGAELHGLDLSEREDTLFVAVKGADQVAAVDLASGAVRLQELAPAPYHLTVADGGETLFVSSREASMVWAVDQVSLRVTAEIGIEGEGHQMVVLP | failed
IVMADWLKIRGTLKSWTKLWCVLKPGVLLIYKTQKNGQWVGTVLLNACEIIERPSKKDGFCFKLFHPLEQSIWAVKGPKGEAVGSITQPLPSSYLIIRATSESDGRCWMDALELALK | not failed
MMDCDHLLRLGMTAKKILENGKGILAADETPKTLGRRFEKLGITNTEENRRKFREILFSTKGIERYIGGVILNQETFEQTSGSGVPLTELLKKKGIEIGIKLDKGLIDYKEKEKISVGLEDLDLRCKSSAFKDATFAKWRSLFYFYDGIPSEDCINENCSILAKYAIICQKNGLVPIVEPEVFLEGDYSMKRSYEVTRQILSTLMKYLNYELVYIPGVLIKASYVTSGQLSNEKYTPKKVATFTLRALLSTIPCGIPGIVFLSGGHGSEDAIGFLNAINMERGCRTWSLSFSFARALTDGVLETWRGDDSNIEEAQKILLETSFKACRGAEGKLWDQE | not failed
MVISSKITDDCSYVKCLSFMMKSRTGNILLAQPENLAHDDDLSQSLLSQVTAVWLWTSLSYGGKPIFNRGISQLVTKKWTIIFNTENTNNHVSLPAPQEISPRLRLASSGTWRLVIGTWE | failed
MGSMLLNGAKMKYGNLSLKCMVQNQKALNFYLSQGFEIVSQVDDELGGYYYMSFVAQT | failed
MRLEKFIHLLGERGFDGALISPGTNLYYLTGLRLHEVGERLAILAVSAEGDYRFLAPSLYENVVNNFPATFWHDGENPYAKLREILEELGISKGRILIEDTMRADWLIGIMKLGKFTFQPLSSLIKELRMIKDKEEVKMMEHASRIADKVFEEILTWDLIGMKERELALKIELLIRELSDGIAFEPIVASGENAANPHHEPGERKIRKGDIIILDYGARWKGYCSDITRTIGLGELDERLVKIYEVVKDAQESAFKAVREGIKAKDVDSRAREVISKAGYGEYFIHRTGHGLGLDVHEEPYIGPDGEVILKNGMTFTIEPGIYVPGLGGVRIEDDIVVDEGKGRRLTKAERELIIL | not failed
MIMTSDIKLLDYLRVRRSTPALQLSEPGPSKGEIEEILRLAVRVPDHGKLAPWRFVVYRGEERVRLSEAALRIALEKNPDLDLQQQEAERTRFTRAPVVIAVISTAKPHFKIPEWEQVMSAGAVCLNVIFAANASGFAANWLTEWLAFDPAFLAEIGVSAEEKVAGYIHIGSTTFPPVERPRPELADVVTWVGDV | not failed
MNYASNTFELIAKEWLQMKDWAEITKTRRLDMLERVVFPAIGKLPVREITPHHILKILQETAKRGAPTVAAEARRTISSVFELAVATLRADSDPVWPVRKALPANKTQHLEHHHHHH | not failed
MLSTNKFAVLAFATFVAFQAPAHAEDAVVAKVGNLEIHQSELDLAVANLDPQLAQLPDDQKKVAALSAAIDVKLLAAGATTEKLEQTDEFKKRMQYLTDRELHNAYFKKHVVDTVTPDEIKARYDKEVAALPKQEEVHARHILVKTEDEAKDIIKQLDAGKDFAELAKEKSTDPNKSEGGDLGYFSRGRMVKEFEDAAFALEKGAYSKTPVKTDFGYHVIKVEDKRDAPPPPFDQVQDQVRQLVMRDKYLALLNQAKSSAKIEISDETLRKGYDEANKQPEPGSEPPQPAPKQ | failed
AADKRIDGNGNPETREIKISDYDEITFVGSADFEYEQSDKAPYLSVTIDENLFDYLVTEVEGGTLKIYPKSIKKGFNNNSYDLRPTVYKIKSNSKELKELNTVGSGSFIISKPTKVNRMEINMAGSGNVELRGPVKGYKLECNMAGSGNIIAKDIQLDNLSCSLASSGEIEVIGTVDRASFNVAGSGEIKAFDCQARKAECNIASSGEISVYATQILDANIVGSGEIHYKGDPEISKSIMGSGSINKVK | not failed
